Experimental data reported in publication PMC11734626.

Target: T7-tagged TanGIBLE (Tandem BAG6 domain I BUILD linked entity) (human) (UniProt P46379)
Assay: co-IP

Which results are given for “Flag-tagged IL-2 receptor α subunit without its signal sequence (Flag-IL-2Rα ΔSS) (domain or fragment)”?
fold co-precipitated against BAG6 N200, with MG-132: 2.4 fold; fold co-precipitated against BAG6 N200, without MG-132: 5.6 fold
